# Results from US20240343818A1, “Antibodies Having Humanized Framework Regions” (priority 2021, published 2024).
# Positions count from the first letter of the chain named.
# B1: VH4/VL4 antibody (antibody, V domains shown)
# VH: QVQLVQSGAEVKKPGASVKVSCKASGYTFTDYYITWVRQAPGQGLEWMGWIYPGSGNTKYNEKFKGRVTITVDTSASTAYMELSSLRSEDTAVYYCANYGNYWFAYWGQGTLVTVSS
# VL: DIVLTQSPDSLAVSLGERATINCKASQSVDFDGDSYMNWYQQKPGQPPKLLIYAASNRESGVPDRFSGSGSGTDFTLTISSLQAEDVAVYYCQQSNEDPWTFGGGTKVEIK
# B2: H1/L4 (conjugate)
# VH: QVQLQQSGPEVVKPGASVKVSCKASGYTFTDYYMTWVRQKPGQGLEWMGWIYPGSGNTKYNQKFKGRVTITVDTSSSTAFMELSSLTSEDTAVYFCANYGNYWFAYWGQGTQVTVSA
# VL: B1 VL
# B3: H4/L2 (conjugate)
# VH: B1 VH
# VL: B1 VL with L4M, D9A, N22S, A25S, M37L, N57T, D64A, A84E, V89T
# B4: H4/L4 (conjugate)
# VH: B1 VH
# VL: B1 VL
# Legend:
# Karpas 299 xenograft = Karpas 299 xenograft with CD30 ADCs; format: in vivo, mice
# Method: (§1) Female CB17/SCID mice were used (6 mice/group) for the study. Animals were inoculated subcutaneously in the flank with 5 million cells in PBS. When tumors reached an average volume of 214 mm^3, animals were treated with vehicle alone, with unconjugated antibody (3 mg/kg), or with an ADC at 1.5 or 3 mg/kg. The animals were monitored twice weekly for body weight and tumor size. Animals were euthanized when tumors reached 2000 mm^3. ADCs were highly efficacious in this study.
# L-82 xenograft = L-82 xenograft with CD30 ADCs; format: in vivo, mice
# Method: as §1, with “Female NOD/SCID” for “Female CB17/SCID”, “used (8” for “used (6”, “with 10” for “with 5”, “in 50% PBS/50% Matrigel.” for “in PBS.”, “of 100” for “of 214”, “mm^3, all animals were treated (Day 0) with a single 10 mg/kg intravenous dose of human IgG. Then, on Day 1,” for “mm^3,”
# [1] = Melting temperature by differential scanning fluorimetry; format: physicochemical
# [2] = Forced stability of ADCs, high-molecular weight species by size-exclusion chromatography; format: physicochemical; conditions: for HWM pH 5.5, 3 d 45° C.: pH 5.5, 3 d at 45° C.; for HWM pH 5.5, 3 d −80° C.: pH 5.5, 3 d at −80° C.; for HWM pH 7.2, 3 d 45° C.: pH 7.2, 3 d at 45° C.; for HWM pH 7.2, 3 d −80° C.: pH 7.2, 3 d at −80° C.
# Excerpt: ADCs were conjugated at the antibody heavy chain C-terminus to a noncleavable linker bearing a maytansine payload for a DAR of ˜1.9. Samples were placed in buffer at the designated pH and temperature for 3 days, then analyzed by size-exclusion chromatography. HMW, high-molecular weight species.
# [3] = single intravenous dose, ADC 1.5 or 3 mg/kg, unconjugated antibody 3 mg/kg
# [4] = ADC (heavy chain C-terminus, noncleavable maytansine linker-payload, DAR ~1.9)
Molecule,"complete responses (Karpas 299 xenograft; Karpas 299 xenograft, CB17/SCID mice, 6 mice/group, single intravenous dose 3 mg/kg (equal dosing))","complete responses (L-82 xenograft; L-82 xenograft, NOD/SCID mice, single intravenous dose 3 mg/kg (equal dosing))",efficacy in Karpas 299 xenograft (Karpas 299 xenograft; [3]),efficacy in L-82 xenograft (L-82 xenograft; [3]),"Fab Tm [1, 4]",Fab Tm ([1]; Antibody),"HWM pH 5.5, 3 d 45° C. [2]","HWM pH 5.5, 3 d −80° C. [2]","HWM pH 7.2, 3 d 45° C. [2]","HWM pH 7.2, 3 d −80° C. [2]"
Adcetris: anti-CD30 ADC used as comparator in the xenograft studies [reference compound],6/6,8 out of 8 mice/group,,,,,,,,
B1,,,minimal activity,minimal activity,,,,,,
B2,,,,,80 °C,81.17 °C,10.05%,1.66%,16.42%,2.90%
B3,,,,,73 °C,75.54 °C,6.18%,1.24%,30.38%,2.37%
B4,,,,,82 °C,80.43 °C,7.70%,1.66%,23.28%,3.14%
